Experimental data reported in patent publication US20140093477A1.

Legend:
[1] = target: fibronectin from human plasma (full-length soluble fibronectin) (human) (UniProt P02751); test: fluorescence saturation binding, fluorophore-labeled MBP-MAM on immobilized fibronectin (coated plates)
[2] = target: fibronectin on host cells (UniProt P02751); test: cell-based or functional assay

| Substance | Kd [1] [µM] | delay of attachment of labeled MAM7 protein to trypsin-treated host cells [2] [h] |
| --- | --- | --- |
| MBP-MAM6 (6xHis-MBP-Cys-six mce domains), Alexa Fluor 488-labeled | 36 | – |
| MBP-MAM7 (6xHis-MBP-Cys-MAM7, seven mce domains), Alexa Fluor 488-labeled (from UniProt P0AEX9 27-392) | – | 1 |
